# Results as given in patent publication US11124558B2, “Use of tetranectin and peptide agonists to treat inflammatory diseases” (The Feinstein Institutes for Medical Research, priority 2017, dated 2021).
# System: lethal sepsis (CLP), Balb/C mice
# Experiment: Lethal sepsis by cecal ligation and puncture (CLP), survival in mice
# Format: in vivo
# Settings: male Balb/C mice, given intraperitoneally, survival monitored more than two weeks
# Method: FIG. 6A-6C: Recombinant TN protected mice against lethal endotoxemia and sepsis. Male Balb/C mice were subjected to lethal endotoxemia (LPS, 5 mg/kg, i.p., Panel A) or sepsis by cecal ligation and puncture (CLP, Panel B, C), and recombinant TN produced in HEK293 (Panel A, B) or E. coli (Panel C) was given intraperitoneally at indicated dosing regimens. Animal survival rates were monitored for more than two weeks to ensure no later death. Shown in Panel B and C is a summary of two independent experiments with similar results.
# (§1) FIG. 9: N-terminal deletion TN mutant protected mice against lethal sepsis. Male Balb/C mice were subjected to lethal sepsis by cecal ligation and puncture (CLP), and recombinant deletion mutant (ΔTN) was given intrapeitoneally at indicated dosing regimens. Animal survival rates were monitored for more than two weeks to ensure no later death. Shown was a summary of two independent experiments with similar results.
# as §1, with “10:” for “9: N-terminal deletion”, “peptide agonist (P11)” for “mutant”, “TN peptide agonist, (P11, […]) (SEQ ID NO:11)” for “recombinant deletion mutant (ΔTN)”, “N=8-18 animals per group.” for “similar results.”
# FIG. 13A-13B: Tetranectin peptide agonists (P2 and P2-M/Nle) protected mice against lethal sepsis. Male Balb/C mice were subjected to lethal sepsis by cecal ligation and puncture (CLP), and TN peptide agonist, P2 (55-KVHMKCFLAFTQTKTF-70) (13A) (SEQ ID NO:2) or P2-M/Nle (54-TKVH(Nle)KSFLAFTQTKT-69) (13B) (SEQ ID NO:13) was given intraperitoneally at indicated dosing regimens. Animal survival rates were monitored for more than two weeks to ensure no later death. Shown was a summary of independent experiment with N=10 animals per group. The Kaplan-Meier method was used to compare the difference in mortality rates between groups. *, P<0.05 versus “CLP+Vehicle” group.
# Effects of TN or peptide agonist on LSI. Balb/C mice (both male and female, 7-8 weeks, 20-25 g) are subjected to lethal endotoxemia or sepsis as described above, and the recombinant TN is injected (i.p.) at various doses and time points (2, 24, and 48 h) after the onset of endotoxemia or sepsis. Their effects on the outcomes of LSI is assessed by comparing the long-term (two-week) survival rates between the TN-treated groups with saline vehicle-treated controls. By varying the time points (e.g., 2, 12, 24 or 36 h) when the first dose of TN will be given to animals, the therapeutic windows for the TN-based therapy is estimated. […] It will be critical to continue these exciting experiments using other dosing regimens to further validate TN's protective role in LSI.
# To explore the therapeutic potential of the TN-based strategies, the efficacy of TN-specific peptide agonists that would recapitulate the HMGB1-inhibiting capacities is tested using both animal models of lethal endotoxemia and sepsis. A series of peptide agonists have been designed, and chemically synthesized or biologically expressed as recombinant peptide (Table 1, FIG. 7). Peptide agonists will be given to the endotoxemic or septic mice intraperitoneally at various doses and time points after the onset of endotoxemia or sepsis. Their effects on the outcomes of LSI is assessed by comparing the long-term (two-week) survival rates between the peptide agonist groups and the saline vehicle-treated controls.
# TN-specific peptide agonists are tested that would recapitulate the HMGB1-inhibiting capacities using both animal models of lethal endotoxemia and sepsis. Peptide agonists are given to the endotoxemic or septic mice intraperitoneally at various doses and time points after the onset of endotoxemia or sepsis. […]
molecule,measurement,setting,value
"tetranectin (protein, listed as Homo sapiens) EPPTQKPKKIVNAKKDVVNTKMFEELKSRLDTLAQEVALLKEQQALQTVCLKGTKVHMKCFLAFTQTKTFHEASEDCISRGGTLGTPQTGSENDALYEYLRQSVGNEAEIWLGLNDMAAEGTWVDMTGARIAYKNWETEITAQPDGGKTENCAVLSGAANGKWFDKRCRDQLPYICQFGIV",protection against lethal sepsis (animal survival),,significant protection
same,protection against lethal sepsis (animal survival),listed as Recombinant TN,protected
same,protection against lethal sepsis (animal survival),listed as recombinant TN,significant protection
